Reference: patent US20180016346A1 (Kyowa Kirin, published 2018)
One block for each binder: values may come before it.

Experiments:
[1] = molecular target: T1, human prostate specific membrane antigen (hPSMA), membrane form on cells (human, UniProt Q04609 1-750); test: flow cytometry on hPSMA/L929 cells (FIG. 2)
T1 construct: endogenous on LNCaP clone FGC cells; also called membrane hPSMA
Procedure: (§1) The cells were suspended in a staining buffer [PBS containing 0.1% NaN₃ and 1% FBS] at a concentration of 1×10⁶ cells/mL, and dispensed in a round-bottom 96-well plate (manufactured by Becton Dickinson) by 100 μL/well. After the centrifugation (2000 rpm, 4° C., 2 minutes), each antibody obtained in Example 7 was added to the pellet obtained by removing the supernatant, and suspended, and then left stand at ice temperature for 30 minutes.
(§2) After the further centrifugation (2000 rpm, 4° C., 2 minutes), the pellet obtained by removing the supernatant was washed twice with 200 μL/well of the staining buffer. Thereafter, 1 μg/mL of RPE fluorescently labeled mouse anti-human antibody (hinge region) clone 4E3 antibody (manufactured by Southern Bioblot) was added thereto by 50 μL/well and incubated at ice temperature for 30 minutes. After washing twice with the staining buffer, the cells were suspended in 200 μL/well of the staining buffer, and the fluorescence intensity of each cell was measured with the flow cytometer FACSCANTO II (manufactured by Becton Dickinson). The obtained results are illustrated in FIG. 2 and FIG. 3.
hPSMA/L929 cells were stained with anti-TRAILR2 monoclonal antibody E11 antibody, anti-hPSMA monoclonal antibody PI134 antibody, or hTRAILR2-hPSMA bispecific antibody E11-CH1-PI101VH antibody, E11-CH1-PN7VH antibody or E11-CH1-PN170VH antibody. The obtained results are illustrated in FIG. 2.

[2] = molecular target: T2, human TRAILR2 (tumor necrosis factor-related apoptosis inducing ligand receptor 2) (human, UniProt O14763 56-440); test: flow cytometry on hTRAILR2/L929 cells (FIG. 3)
T2 construct: whole, on cells; The hTRAILR2/L929 cells are only cited from WO 2002/094880, and the construct expressed on them is not described here; On PC3 and LNCaP clone FGC cells the receptor is endogenous; also called hTRAILR2; death receptor 5
Procedure: as §1
as §2, with “3. […]” for “3.”

[3] = molecular target: T1, human prostate specific membrane …; test: flow cytometry

T1 sequence (Q04609 whole entry): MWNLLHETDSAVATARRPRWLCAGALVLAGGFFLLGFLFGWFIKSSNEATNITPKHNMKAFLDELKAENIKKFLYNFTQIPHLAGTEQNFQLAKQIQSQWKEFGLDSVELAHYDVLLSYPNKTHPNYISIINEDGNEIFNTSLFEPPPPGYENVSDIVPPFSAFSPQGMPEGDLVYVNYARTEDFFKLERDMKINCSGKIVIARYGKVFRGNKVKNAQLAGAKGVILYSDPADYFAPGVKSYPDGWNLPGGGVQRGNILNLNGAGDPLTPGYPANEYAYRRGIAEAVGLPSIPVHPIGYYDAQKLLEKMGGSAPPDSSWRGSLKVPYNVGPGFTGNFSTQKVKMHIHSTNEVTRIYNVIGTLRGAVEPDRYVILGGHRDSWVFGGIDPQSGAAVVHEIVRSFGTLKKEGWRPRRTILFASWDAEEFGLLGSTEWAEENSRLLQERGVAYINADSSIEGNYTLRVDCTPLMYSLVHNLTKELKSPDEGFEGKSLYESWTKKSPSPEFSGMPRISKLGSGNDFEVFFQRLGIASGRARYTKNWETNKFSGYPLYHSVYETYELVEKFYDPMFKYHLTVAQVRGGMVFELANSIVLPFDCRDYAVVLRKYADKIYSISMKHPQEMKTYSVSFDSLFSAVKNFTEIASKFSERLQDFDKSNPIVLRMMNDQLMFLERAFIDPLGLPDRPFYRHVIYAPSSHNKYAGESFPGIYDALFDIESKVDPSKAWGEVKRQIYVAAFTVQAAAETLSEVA

B1: anti-hPSMA monoclonal antibody 2A10 antibody (antibody, human IgG1, V domains shown)
VH: EVQLVQSGAEVKKPGESLKISCKGSGYSFTSNWIGWVRQMPGKGLEWMGIIYPGDSDTRYSPSFQGQVTISADKSISTAYLQWSSLKASDTAMYYCARQTGFLWSSDLWGRGTLVTVSS
VL: IQLTQSPSSLSASVGDRVTITCRASQDISSALAWYQQKPGKAPKLLIYDASSLESGVPSRFSGYGSGTDFTLTINSLQPEDFATYYCQQFNSYPLTFGGGTKVEIK
notes: Expressed from vector N5KG1 (N5KG1_2A10), the human IgG1 type vector
binding result [1]: binds

B2: anti-hPSMA monoclonal antibody PI134 antibody (antibody, human IgG1, V domains shown)
VH: QVQLVQSGAEVKKPGASVKVSCKASGYTFTTYDINWVRQATGQGLEWMGWMNPNNGYTGYAQKFQGRVTMTRNTSISTAYMELSSLRSEDTAVYYCARTNWVYWYFDLWGRGTLVTVSS
VL: EIVLTQSPATLSLSPGERATLSCRASQSVSSFLAWYQQKPGQAPRLLIYDASNRATGIPARFSGSGSGTDFTLTISSLEPEDFAVYYCQQRSNWPLTFGPGTKVDIKR
notes: Its VL is the same as that of the E11 antibody
binding result [1]: binds
binding result [2]: no binding

B3: hTRAILR2-hPSMA heterobispecific antibody E11_PN7 Hetero antibody (bispecific antibody, human IgG1)
heavy 1: not shown
heavy 2: not shown
VL: B2 VL
notes: also called hE11_PN7 Hetero antibody
binding result [3]: binds

B4: hTRAILR2-hPSMA bispecific antibody E11-GL-PI134VH antibody (bispecific antibody, IgG4)
heavy: not shown
VL: B2 VL
notes: domain: constant region; All four light chains carry E11 VL; also called E11-GL-PI1134VH
binding result [1]: binds

The next lines start with the values.

binding result [1]: binds
B5: hTRAILR2-hPSMA bispecific antibody E11-CH1-PI134VH antibody (bispecific antibody, IgG4)
heavy: not shown
VL: B2 VL
notes: domain: constant region; All four light chains carry E11 VL; also called E11-CH1-PI134 antibody

binding result [3]: binds
B6: hTRAILR2-hPSMA bispecific antibody fragment E11-CH1-PN7VH Fab (bispecific antibody)
heavy: QLQLQESGPGLVKPSETLSLTCTVSGGSIISKSSYWGWIRQPPGKGLEWIGSIYYSGSTFYNPSLKSRVTISVDTSKNQFSLKLSSVTAADTAVYYCARLTVAEFDYWGQGTLVTVSSASTKGPSVFPLAPCSRSTSESTAALGCLVKDYFPEPVTVSWNSGALTSGVHTFPAVLQSSGLYSLSSVVTVPSSSLGTKTYTCNVDHKPSNTKVDKRVEVQLVQSGAEVKKPGASVKVSCKASGYTFTTYDINWVRQATGQGLEWMGWMNPNSGYTGYAQKFQGRVTMTRDTSISTAYMELSSLRSEDTAVYYCARTNWESWYFDLWGRGTLVTVSSASTKGPSVFPLAPCSRSTSESTAALGCLVKDYFPEPVTVSWNSGALTSGVHTFPAVLQSSGLYSLSSVVTVPSSSLGTKTYTCNVDHKPSNTKVDKRVDYKDDDDKHHHHHH
VL: B2 VL
notes: The hinge region is deleted from E11-CH1-PN7VH F(ab′)2; The light chains carry E11 VL, as in the F(ab′)2

binding result [3]: binds
B7: hTRAILR2-hPSMA bispecific antibody fragment E11-CH1-PN7VH F(ab′)2 (bispecific antibody)
heavy: QLQLQESGPGLVKPSETLSLTCTVSGGSIISKSSYWGWIRQPPGKGLEWIGSIYYSGSTFYNPSLKSRVTISVDTSKNQFSLKLSSVTAADTAVYYCARLTVAEFDYWGQGTLVTVSSASTKGPSVFPLAPCSRSTSESTAALGCLVKDYFPEPVTVSWNSGALTSGVHTFPAVLQSSGLYSLSSVVTVPSSSLGTKTYTCNVDHKPSNTKVDKRVEVQLVQSGAEVKKPGASVKVSCKASGYTFTTYDINWVRQATGQGLEWMGWMNPNSGYTGYAQKFQGRVTMTRDTSISTAYMELSSLRSEDTAVYYCARTNWESWYFDLWGRGTLVTVSSASTKGPSVFPLAPCSRSTSESTAALGCLVKDYFPEPVTVSWNSGALTSGVHTFPAVLQSSGLYSLSSVVTVPSSSLGTKTYTCNVDHKPSNTKVDKRVESKYGPPCPPCPDYKDDDDKHHHHHH
VL: B2 VL
notes: CH2 and CH3 are deleted; The heavy chain carries a C-terminal FLAG-tag and His-tag and dimerises through cysteine in the hinge region; All light chains carry E11 VL

binding result [1]: binds
B8: hTRAILR2-hPSMA bispecific antibody E11-CH1-PN170VH antibody (bispecific antibody, IgG4)
heavy: not shown
VL: B2 VL
notes: domain: constant region; The heavy chain is E11 VH, an IgG4 CH1 linker and PN170 VH, followed by the constant region of the vector; All four light chains carry E11 VL

binding result [1]: binds
B9: hTRAILR2-hPSMA bispecific antibody E11-CH1-PI101VH antibody (bispecific antibody, IgG4)
heavy: not shown
VL: B2 VL
notes: domain: constant region; The heavy chain is E11 VH, an IgG4 CH1 linker and PI101 VH, followed by the constant region of the vector; All four light chains carry E11 VL
